Experimental data reported in patent US20160115235A1 (ARES TRADING S A, published 2016).
Changes are numbered by the printed parent chain.

How the values were obtained:
[1] = target: T1, human CXCR5 (human, UniProt P32302 1-372); experiment: cell-based or functional assay
T1 sequence: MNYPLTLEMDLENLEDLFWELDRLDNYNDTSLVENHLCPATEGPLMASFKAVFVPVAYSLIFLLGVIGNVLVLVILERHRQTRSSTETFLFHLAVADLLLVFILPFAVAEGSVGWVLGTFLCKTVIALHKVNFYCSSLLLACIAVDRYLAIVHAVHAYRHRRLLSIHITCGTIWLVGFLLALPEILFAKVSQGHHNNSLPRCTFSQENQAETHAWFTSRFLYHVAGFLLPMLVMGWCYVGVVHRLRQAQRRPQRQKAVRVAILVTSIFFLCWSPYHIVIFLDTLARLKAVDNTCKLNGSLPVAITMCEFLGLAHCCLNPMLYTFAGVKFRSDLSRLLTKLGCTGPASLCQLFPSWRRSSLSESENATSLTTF

[2] = target: T2, mouse CXCR5 (mouse, UniProt Q04683 1-374); experiment: FACS on cells expressing species orthologues
T2 construct: whole, on cells
T2 sequence (looked up): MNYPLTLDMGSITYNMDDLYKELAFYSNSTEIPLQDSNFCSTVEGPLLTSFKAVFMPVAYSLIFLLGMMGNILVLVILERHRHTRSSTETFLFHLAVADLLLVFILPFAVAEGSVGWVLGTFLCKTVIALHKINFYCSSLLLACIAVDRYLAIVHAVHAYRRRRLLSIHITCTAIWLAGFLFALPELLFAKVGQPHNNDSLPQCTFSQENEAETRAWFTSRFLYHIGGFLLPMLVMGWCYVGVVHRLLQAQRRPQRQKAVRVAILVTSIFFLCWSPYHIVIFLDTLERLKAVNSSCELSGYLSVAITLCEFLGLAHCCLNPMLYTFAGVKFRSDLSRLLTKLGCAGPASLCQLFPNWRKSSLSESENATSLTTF
Experimental: (§1) Binding of anti-CXCR5 antibodies to cell lines and primary cells expressing human CXCR5 or species orthologues was assessed by FACS. Briefly, approximately 1×10⁵ CXCR5 expressing cells were suspended in FACS buffer (PBS containing 1% FBS and 0.02% sodium azide) containing increasing concentrations of anti-CXCR5 antibodies ranging from 0-100 μg/ml, and incubated for 20 min at 4° C. Cells were washed and then resuspended in FACS buffer containing PE-labelled goat anti-human IgG (Jackson labs) for 20 min at 4° C. Cells were then washed 3 times and resuspended in 100 μl FACS buffer and analysed on a FACScalibur instrument (BD Sciences). MFI was plotted against antibody concentration and Graph pad prism software was used to calculate EC₅₀ values.

[3] = target: T3, rat CXCR5 (rat, UniProt P34997 1-374); experiment: FACS on cells expressing species orthologues
T3 construct: whole, on cells
T3 sequence (looked up): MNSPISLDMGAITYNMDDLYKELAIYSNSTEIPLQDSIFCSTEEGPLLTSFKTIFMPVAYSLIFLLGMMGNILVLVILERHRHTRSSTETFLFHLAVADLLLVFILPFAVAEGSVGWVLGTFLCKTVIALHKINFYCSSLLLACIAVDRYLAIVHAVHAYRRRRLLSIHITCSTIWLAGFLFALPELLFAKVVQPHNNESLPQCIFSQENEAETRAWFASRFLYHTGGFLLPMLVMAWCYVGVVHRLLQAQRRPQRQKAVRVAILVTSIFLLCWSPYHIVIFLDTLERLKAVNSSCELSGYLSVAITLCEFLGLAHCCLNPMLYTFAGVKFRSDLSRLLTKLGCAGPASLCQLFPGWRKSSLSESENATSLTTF
Experimental: as §1

[4] = target: T1, human CXCR5; experiment: cell-based or functional assay; remark: listed apart in the source
[5] = target: T1, human CXCR5; experiment: cell-based or functional assay; remark: listed apart in the source

B1: mAb 80A11 (antibody, V domains shown)
VH: EVQLLESGGGLVQPGGSLRLSCAASGFTFSRYPMGWVRQAPGKGLEWVSSISPSGGMTRYADSVKGRFTISRDNSKNTLYLQMNSLRAEDTAVYYCARLKFTSGRTFDIWGQGTMVTVSS
VL: DIQMTQSPATLSLSPGERATLSCRASQSVSSYLAWYQQKPGQAPRLLIYGASSRVPGVPDRFTGSGSETDFTLTITRLEPEDFAVYYCQLSSSSPSWTFGQGTRLEIK
Mean IC50 (nM) on L1.2/human CXCR5 cells (chemotaxis) [1]: 1.85 nM | binding result [2]: no binding | binding result [3]: no binding

B2: anti-CXCR5 40C01-VH1-Vk3 as IgG4 (antibody)
heavy: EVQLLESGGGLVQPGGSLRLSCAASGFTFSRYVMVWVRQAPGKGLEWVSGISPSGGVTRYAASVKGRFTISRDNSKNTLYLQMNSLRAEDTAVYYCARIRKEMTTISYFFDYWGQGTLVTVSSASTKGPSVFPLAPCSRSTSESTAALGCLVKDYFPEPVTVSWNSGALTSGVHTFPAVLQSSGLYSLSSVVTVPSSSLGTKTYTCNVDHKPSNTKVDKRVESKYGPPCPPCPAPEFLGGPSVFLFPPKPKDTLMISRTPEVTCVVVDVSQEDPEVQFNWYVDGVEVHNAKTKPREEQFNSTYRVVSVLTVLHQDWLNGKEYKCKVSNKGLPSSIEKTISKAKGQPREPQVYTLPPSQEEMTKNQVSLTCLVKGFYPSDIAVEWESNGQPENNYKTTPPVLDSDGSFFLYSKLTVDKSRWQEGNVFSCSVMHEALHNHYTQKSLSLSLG
light: DIQMTQSPSSLSASVGDRVTITCRASQGVDAYVAWYQQKPGKVPKLLIYSTSTLASGVPSRFSGSGSGTDFTLTISSLQPEDVATYYCQSHNAAVVTFGQGTRLEIKRTVAAPSVFIFPPSDEQLKSGTASVVCLLNNFYPREAKVQWKVDNALQSGNSQESVTEQDSKDSTYSLSSTLTLSKADYEKHKVYACEVTHQGLSSPVTKSFNRGEC
IC50, inhibition of CXCL13-induced L1.2-CXCR5 chemotaxis [4]: 2.1 nM | efficacy of inhibition of CXCL13-stimulated L1.2-CXCR5 chemotaxis [5]: 100%

B3: anti-CXCR5 40C01-VH2-Vk3 as IgG4 (antibody)
heavy: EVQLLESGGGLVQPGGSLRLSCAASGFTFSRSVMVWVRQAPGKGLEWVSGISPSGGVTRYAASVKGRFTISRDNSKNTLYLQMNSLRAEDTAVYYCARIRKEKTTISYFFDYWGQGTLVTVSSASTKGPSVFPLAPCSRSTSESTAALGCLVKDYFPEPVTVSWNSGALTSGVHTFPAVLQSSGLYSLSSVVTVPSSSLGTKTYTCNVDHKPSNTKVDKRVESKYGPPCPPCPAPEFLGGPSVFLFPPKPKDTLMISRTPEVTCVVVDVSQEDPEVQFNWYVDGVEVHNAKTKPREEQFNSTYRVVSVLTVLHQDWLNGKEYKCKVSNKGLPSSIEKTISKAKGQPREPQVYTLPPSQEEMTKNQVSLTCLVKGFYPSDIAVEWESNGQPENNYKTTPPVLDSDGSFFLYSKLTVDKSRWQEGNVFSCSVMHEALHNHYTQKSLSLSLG
light: B2 light
IC50, inhibition of CXCL13-induced L1.2-CXCR5 chemotaxis [4]: 0.103 nM | efficacy of inhibition of CXCL13-stimulated L1.2-CXCR5 chemotaxis [5]: 100%

B4: mAb 80A10 (antibody, V domains shown)
VH: EVQLLESGGGLVQPGGSLRLSCAASGFTFSMYVMKWVRQAPGKGLEWVSGIRSSGGDTSYADSVKGRFTISRDNSKNTLYLQMNSLRAEDTAVYYCARQSRYCNGGSCYSRAFDIWGQGTMVTVSS
VL: QPPSASGTPGQRVTISCFGSNSNIGSTYAYWYQQVPGTAPKLLIYRNNQRPSGVPDRFSGSKSGTSASLAISGLRSEDEADYYCAAWDVNLSGHWVFGGGTKLTVLG
Mean IC50 (nM) on L1.2/human CXCR5 cells (chemotaxis) [1]: 4.7 nM | binding result [2]: no binding | binding result [3]: no binding

B5: mAb 80B09 (antibody, V domains shown)
VH: EVQLLESGGGLVQPGGSLRLSCAASGFTFSKYNMLWVRQAPGKGLEWVSVISPSGGRTSYADSVKGRFTISRDNSKNTLYLQMNSLRAEDTAVYYCARHTSITMFDYWGQGTLVTVSS
VL: QSALTQPASVSGSPGQSITISCTGTSSDIGSYNYVSWYQQHPGRAPKVMIYDVTYRPSGVSNRFSGSKSGNTASLTISGLQAEDEADYYCGSYRKSSLYVFGTGTKVTVL
Mean IC50 (nM) on L1.2/human CXCR5 cells (chemotaxis) [1]: 251 nM | binding result [2]: no binding | binding result [3]: no binding

B6: recombinant Fab fragment of 40C01-VH1-Vk3 (Fab, V domains shown)
VH: EVQLLESGGGLVQPGGSLRLSCAASGFTFSRYVMVWVRQAPGKGLEWVSGISPSGGVTRYAASVKGRFTISRDNSKNTLYLQMNSLRAEDTAVYYCARIRKEMTTISYFFDYWGQGTLVTVSS
VL: DIQMTQSPSSLSASVGDRVTITCRASQGVDAYVAWYQQKPGKVPKLLIYSTSTLASGVPSRFSGSGSGTDFTLTISSLQPEDVATYYCQSHNAAVVTFGQGTRLEIK
IC50, inhibition of human CXCR5-L1.2 cell chemotaxis [5]: 288 nM

B7: recombinant Fab fragment of 40C01-VH2-Vk3 (Fab, V domains shown)
VH: B6 VH with Y32S, M103K
VL: B6 VL
IC50, inhibition of human CXCR5-L1.2 cell chemotaxis [5]: 20.9 nM

B8: mAb 42F03 (antibody, human IgG1, V domains shown)
VH: EVQLLESGGGLVQPGGSLRLSCAASGFTFSWYPMTWVRQAPGKGLEWVSYIRSSGGFTKYADSVKGRFTISRDNSKNTLYLQMNSLRAEDTAVYYCARGLYRWGQGTLVTVSS
VL: IQMTQSPGTLSLSPGERATLSCRASQSVSNNYLAWYQQKPGQAPRLLISGASRRATDIADRFSGSGSGTDFTLTISRLEPEDFAVYYCQQYDSFPLTFGGGTKVEIK
Mean IC50 (nM) on L1.2/human CXCR5 cells (chemotaxis) [1]: 1.86 nM | binding result [2]: no binding | binding result [3]: no binding
